Assay results published in patent publication US20070141662.

Biological target: CISNN116 (NT1-C3-hIL21) (UniProt Q9HBE4)
Sequence (Q9HBE4 other isoform, or with tags, fused parts or gaps): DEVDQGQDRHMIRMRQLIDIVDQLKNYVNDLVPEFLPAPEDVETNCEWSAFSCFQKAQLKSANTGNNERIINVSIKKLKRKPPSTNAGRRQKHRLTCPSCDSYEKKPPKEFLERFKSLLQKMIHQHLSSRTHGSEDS

**Q.** With Caspase 3 as the substance, how does the “completion of the proteolysis reaction (Maldi analysis), 1 hour at 37° C.” value read?
**A.** The value was “Maldi analysis showed 87% completion of the reaction”.
